B1: Hairpin Ribozyme (parent)
chain: GUCCUCUUUCACGUGCGCGUGAAAGAGAGAAGUGAACCAGAGAAACACACGUUGUGGUAUAUUACCUGGUA

Variants of: B1
Assay: self-cleavage, relative activity (ratio to wild type); higher = more cleavage; co-transcriptional
GUCCUCUAUCACGUUCGCGUGAAAGAGAGAAGUGAACCAGAGAAACACACGUUGUGGUAUAUUACCUGGUA gave a self-cleavage of 0.888. GUCCUCUUUCACGUGCGCGUGAAAGAGUGAAGUGAACCAGAGAAACACACCUUGUGGUAUAUUACCUGGUA gave a self-cleavage of 0.49. With GUCCUCUUUCACGUGCGCGUGAAAGAGAGAAUUGAACAAGAGAAACACACGUUGUGGUAUAUUACCUGGUA the self-cleavage was 0.0741. For GUCCUCUUUCACGUGCGCGUGAAAGAGAGAAGUGAACCAGAGAAACCCGCGUUGUGGUAUAUUACCUGGUA, the self-cleavage was 0.308. Variant GUCCUCUUUCACGUGCGGGUGAAAGAGAGAAGUGAACCAGAGAAACACAGGUUGUGGUAUAUUACCUGGUA has a self-cleavage of 0.176. Variant GUCCUCUUUCACGUGCGCGUGAAAGAGAAAAGUGAACCAGAGAAACACACGUUGUGGUAUAUUACCUGUUA has a self-cleavage of 0.113. In the case of GACCUCUUUGACGUGCGCGUGAAAGAGAGAAGUGAACCAGAGAAACACACGUUGUGGUAUAUUACCUGGUA, the self-cleavage is reported as 0.238. Work on GUCCUCUUUCACGUGCGCGUGAAAGAGAGAAGUGAACCAGAGAAACACACGUCGUGGUAUAUUACCGGGUA yielded a self-cleavage of 0.462. GUCCUCUUUCACGUGCGCGUGAGAGAGAGAAGUGAACCAGAGAAACACACGCUGUGGUAUAUUACCUGGUA gave a self-cleavage of 0.713. For GUCCUCUUUCACGUGCGCGUGAAAGAGAGAAGGGAACCAGAGAAACACACGUUGCGGUAUAUUACCUGGUA, the self-cleavage was 0.117. With GUCUUCUUUCACGUGCGCGUGAAAGAGAGAAGUGAACCAGAGAAACACACGUUGUGGUAUAUUACGUGGUA the self-cleavage was 0.217. GUCCUCUUUCACGUGCACGUGAAAGAGAGAAGUGAACCAGAGAAACACACGUUGUGGUAUAUUACCUGGGA showed a self-cleavage of 0.918. With GUCCUUUUUCACGUGCGCGUGAAAGAGAGAAGUGAACCAGAGAAACACACGUUGUGUUAUAUUACCUGGUA the self-cleavage was 0.324. Variant GUCCUCUUUCACGUGCGCGUGAUAGAGAGAAGUGAACCAGAGAAACACAUGUUGUGGUAUAUUACCUGGUA has a self-cleavage of 0.376. Variant GUCCUCUUUCACGUGCGCUUGAAAGAGAGAAGUGAACCAGAGAAAAACACGUUGUGGUAUAUUACCUGGUA has a self-cleavage of 0.17. With UUCCUCUUUCACGUGCGCGUGAAAGAGAGAAGUGAACCAGAGAAACACACGUUAUGGUAUAUUACCUGGUA the self-cleavage was 0.0766. GUCCUCUUUCACGUGCGCGUGAAAGAGAGAAGUGAACCAGAGAAACACACGUUGUGGUGUAUUAACUGGUA gave a self-cleavage of 0.155. Variant GUACUCUUUCACGUGCGCGUGACAGAGAGAAGUGAACCAGAGAAACACACGUUGUGGUAUAUUACCUGGUA has a self-cleavage of 0.484. GUCCUCUUUCACGUGCGCGUGAAAGAGAGAAGUGAAACAGAGAAACACACGUUGUGGUAUACUACCUGGUA gave a self-cleavage of 0.196. In the case of GUCCUCUUUCACGUGCGCGUAAAAGAGCGAAGUGAACCAGAGAAACACACGUUGUGGUAUAUUACCUGGUA, the self-cleavage is reported as 0.472. In the case of GUCCUCUUUCACGUGCGCGUGAAAGAGAGAGGCGAACCAGAGAAACACACGUUGUGGUAUAUUACCUGGUA, the self-cleavage is reported as 0.0729. For GUCCUCUAUCACGUGCGCGUGAAAGAGAGAAGUGAACCAGAGAAACACACGUUGGGGUAUAUUACCUGGUA, the self-cleavage was 0.268. Work on GUCCUCUUUCACGUGCGCGUGAAAGAGAGAAGUGAACCACAGAAACACACGUUGUGGUAUAUUCCCUGGUA yielded a self-cleavage of 0.126. Variant GUCCUCUUUCACGUGCGAGUGAAAGAGAGAAGUGAACCAGAGAUACACACGUUGUGGUAUAUUACCUGGUA has a self-cleavage of 0.105. In the case of GUCCUCUUUCACGUGCGCGUGAAAGAGAGAAGUGAACCAGAGAAACACACGUUGUGGUAUAUUCCGUGGUA, the self-cleavage is reported as 0.084. Variant GACCUCUUUAACGUGCGCGUGAAAGAGAGAAGUGAACCAGAGAAACACACGUUGUGGUAUAUUACCUGGUA has a self-cleavage of 0.132. For GUCCUCUUUCACGUGCGCGUGAAAGAGAGAAGUGAACCAGAAAAACACACGUUGUGGUAUAUUACUUGGUA, the self-cleavage was 0.147. With GUCCUCUUUCACAUGCGCGUGAAAGAGAGAAGUGAACCAGAGAAACACACGUUGUGGUAUAUUACCGGGUA the self-cleavage was 0.18. For GCCCUCUUUCACGUCCGCGUGAAAGAGAGAAGUGAACCAGAGAAACACACGUUGUGGUAUAUUACCUGGUA, the self-cleavage was 0.243. With GUCCUCUUUCACGAGCGCGGGAAAGAGAGAAGUGAACCAGAGAAACACACGUUGUGGUAUAUUACCUGGUA the self-cleavage was 0.663. In the case of GUCCUGUUUCACGUGCGCGUGAAAGAGAGAAGUGAACCAGUGAAACACACGUUGUGGUAUAUUACCUGGUA, the self-cleavage is reported as 0.873. GUCCUCCUUCACGUGCGCGUGAAAGAGAGAAGUGAACCUGAGAAACACACGUUGUGGUAUAUUACCUGGUA gave a self-cleavage of 0.465. With GUCCUCUUUCACGUGCGCGUGAAAGAGAGAAGUGACCCAGAGAAACACAGGUUGUGGUAUAUUACCUGGUA the self-cleavage was 0.131. Variant GUCCUCUUUCACGUGCGCGUGAAAGAGAGAAGUGAGCCAGAGAAACACACGUUAUGGUAUAUUACCUGGUA has a self-cleavage of 0.715. For GUCCUCUUUCACGUCCGGGUGAAAGAGAGAAGUGAACCAGAGAAACACACGUUGUGGUAUAUUACCUGGUA, the self-cleavage was 0.863. Variant GUCCUCUUUCACGUGCGAGUGAAAGAGAGAAGUGAACCAGAGAAACACACGUAGUGGUAUAUUACCUGGUA has a self-cleavage of 1.02. In the case of GUCCUCUUUCACGUGCGCGUGAAAGAGAGAAGUGAACCAGAGAAACACACGUUGUGGUAUAUUUGCUGGUA, the self-cleavage is reported as 0.188. GUCCUCUUUCACGUGCGCCUGAAAGAGAGAAGUGAACCAGAGAAACACACGGUGUGGUAUAUUACCUGGUA gave a self-cleavage of 0.898. GUCCUCUUUGACGAGCGCGUGAAAGAGAGAAGUGAACCAGAGAAACACACGUUGUGGUAUAUUACCUGGUA showed a self-cleavage of 0.635. With GUCCUCUUUCAAGUGCGCGUGAAAGAGAGAAGUGAACCAGAGAACCACACGUUGUGGUAUAUUACCUGGUA the self-cleavage was 0.137. In the case of GUCCUCUUUCACGUGCGCGUGAAAGAGAGAAGUGAACCAGAGAAAUACACGUUGUGGUAUAUUAGCUGGUA, the self-cleavage is reported as 0.087. GUCCUAUUUCACGUGCGCGUGAAAGAGAGAAGUGAACCAGAGAAACACACGUUGUUGUAUAUUACCUGGUA showed a self-cleavage of 0.218. Variant GUCCUCUUUCACGUGCGCGUGAAAGAGAGAAGUAUACCAGAGAAACACACGUUGUGGUAUAUUACCUGGUA has a self-cleavage of 0.569. Variant GUCCUCUUUCACGUGCGCGUGAAAGAUAGAAGUGAACCAGAGAAACACACGUCGUGGUAUAUUACCUGGUA has a self-cleavage of 0.398. Work on GUCCUCUUUCACGUGCGCGUGAAAGAGAGAAGUGAUCCAGAGAAACACAAGUUGUGGUAUAUUACCUGGUA yielded a self-cleavage of 0.242. For GUCCUCUUUCACGUGCGCGUGAAAGACAGAAGUGAACCAGAGAAACACACGUUGUGGUAUGUUACCUGGUA, the self-cleavage was 0.237. For GCCCUCUUUCACGCGCGCGUGAAAGAGAGAAGUGAACCAGAGAAACACACGUUGUGGUAUAUUACCUGGUA, the self-cleavage was 0.359. In the case of GUCCUCUCUCACGUGCGCGUGAAAGGGAGAAGUGAACCAGAGAAACACACGUUGUGGUAUAUUACCUGGUA, the self-cleavage is reported as 0.544. Variant GUCCUCUUUCACGCGCGCGUGAAAGAGAGAAGUGAACCAGAGAAACACACGUUGUGGUAUAGUACCUGGUA has a self-cleavage of 0.218. Variant GUCCUCUUUCACGUGCGCGUGAAAGAGAGAAGUGACCCAGAGAAACACACGUUUUGGUAUAUUACCUGGUA has a self-cleavage of 0.33. Work on GUCCUCUUUCACGUGCGCGUGAAAGAGAGAAGUGAACCAGAGAAACACACGUUGUGGGAAAUUACCUGGUA yielded a self-cleavage of 0.714. GUACUCUUUCACGUGCGCGUGAAAGAGAGAAGUGAACCAGAGAAACACACGCUGUGGUAUAUUACCUGGUA gave a self-cleavage of 0.619. Variant GUCCUCUUUCACGUGCGCGUGAAAGAGAGAAGAGAAACAGAGAAACACACGUUGUGGUAUAUUACCUGGUA has a self-cleavage of 0.112. In the case of GUCCUCUUUCACGUGCGCGUGAAAGAGAGAAGUGAACCAGAGAAACACACGUUGUGUUAUAUAACCUGGUA, the self-cleavage is reported as 0.146. GUCCUCUUUCACGUGCGCGUGAAAGAGAGAAGUGCACCAGAGAGACACACGUUGUGGUAUAUUACCUGGUA showed a self-cleavage of 0.0678. GUCCUCUUUCACGUGCGCGUCAAAGAGAGAAGUGAACCAGAGAAACACACGUUGUGGUAUAUUCCCUGGUA gave a self-cleavage of 0.154. In the case of GUCCUCUUUCACGUGCGCGUGAAAGAGGGAAGUGAACCAGAGAAACACACGUUGUGGUAUCUUACCUGGUA, the self-cleavage is reported as 0.434. Work on GUCCUCUUUCACGUGCGCGCGAAAGAGAGAAGUGAACCUGAGAAACACACGUUGUGGUAUAUUACCUGGUA yielded a self-cleavage of 0.315. Work on GUCCUCUUUCACGUGCGCGUGAAAGAGACAUGUGAACCAGAGAAACACACGUUGUGGUAUAUUACCUGGUA yielded a self-cleavage of 0.0962. With GUCCUCUUUCAAGUGCGCGUGAAAGAGAGAAGUGAACCAGAGAAACACACCUUGUGGUAUAUUACCUGGUA the self-cleavage was 0.78. Variant GUCAUCUUUCACGUGCGCGUGAAAGAGAGAAGUGAAGCAGAGAAACACACGUUGUGGUAUAUUACCUGGUA has a self-cleavage of 0.0599. In the case of GCCCUCUUACACGUGCGCGUGAAAGAGAGAAGUGAACCAGAGAAACACACGUUGUGGUAUAUUACCUGGUA, the self-cleavage is reported as 0.109. Work on GUCCUCUUUCACAUGCGCGUGAAAGAGAGAAGUGAACCAGAGAAACACGCGUUGUGGUAUAUUACCUGGUA yielded a self-cleavage of 0.5. With GUCCUCUUUCACGUGCGCGUGAAAGAGAGAAGUGAACAAGAGAAACACACGUUGUGGUAUAUCACCUGGUA the self-cleavage was 0.0636. GUCGUCUUUCACGUGCGCGUGUAAGAGAGAAGUGAACCAGAGAAACACACGUUGUGGUAUAUUACCUGGUA showed a self-cleavage of 0.196. For GCCCUCUUUCACGUGCGCGUGAAAGAGAGAAGUGAACCAGAGAAACACACGUUGUGGUAUAUUACAUGGUA, the self-cleavage was 0.0248. Variant GUCCUCUAUCACGUGCGCGUGAAAGAUAGAAGUGAACCAGAGAAACACACGUUGUGGUAUAUUACCUGGUA has a self-cleavage of 0.208. Work on GUCCUCUUUCACGUGCGCGUGAAAGAGAGAAGUGAACCAGAGAAACACACGGUGUGGUUUAUUACCUGGUA yielded a self-cleavage of 0.177. Work on GUCCUCUUUCACGUGCGCGUGAAAGAGAGAAGUGAACCAGAGAAUCACACGUUGUGGUAUAUUACAUGGUA yielded a self-cleavage of 0.204. For GUCCUCUUUCACGUGCGCGUGGUAGAGAGAAGUGAACCAGAGAAACACACGUUGUGGUAUAUUACCUGGUA, the self-cleavage was 0.59. Work on GUCCUCUUUCACGUGCGCGUGAAAGAGAGAAGUGAACCAGAGAAACACGCGUUGUGAUAUAUUACCUGGUA yielded a self-cleavage of 0.111. Work on GUCCUCUUUCACGUGCGCGUGAAAGAGAGGAGUGAACCAGAGAAAUACACGUUGUGGUAUAUUACCUGGUA yielded a self-cleavage of 0.236. In the case of GUCCUCUUUCACGUGCGGGUGAAAGAGAGAAGUGAACCAGAGAAACACACGUUGUGGUAUAUUACCUGCUA, the self-cleavage is reported as 0.205. GUCCUCUUUCACGUGCGCGUGAAAGAGGGAAGUGAACCAGAGAAACACACGUUGUGGUAUAAUACCUGGUA gave a self-cleavage of 0.287. GGCCUCUUUCACGUGCGCGUGAAAGAGAGAAGUGAACCAGAGAAACAUACGUUGUGGUAUAUUACCUGGUA showed a self-cleavage of 0.117. Variant CUCCUCUUUCACGUGCGCGUGAAAGAGAGAAGUGAACCAGAAAAACACACGUUGUGGUAUAUUACCUGGUA has a self-cleavage of 0.148.

Reference: the RNAGym collection of RNA variant scans (doi:10.7554/elife.80360)
